Data set [1] can be described thus: polymer sandwich ELISA of cell lysates. The following applies: glycan lost.
A short description of data set [2]: non-denaturing PAGE and western blot, COS-7. The following applies: glycan lost.
Data set [3] can be described thus: western densitometry, insoluble fraction, MG132 treatment. The following applies: glycan lost; control: G392E NS.
The nature of data set [4]: western blot, soluble plus insoluble intracellular fractions. The following applies: glycan lost; control: G392E NS.
Data set [5] is described as follows: 35S pulse-chase, total intracellular NS up to 24 h. The following applies: glycan lost; control: G392E NS.
Data set [6] is described as follows: SDS/PAGE western blot densitometry of insoluble fraction. The following applies: glycan lost; control: wild type NS.

Changes are numbered by the printed parent chain. Names may count otherwise.

B1: G392E neuroserpin (G392E NS): G392E/N321A (protein)
parent chain: MAFLGLFSLLVLQSMATGATFPEEAIADLSVNMYNRLRATGEDENILFSPLSIALAMGMMELGAQGSTQKEIRHSMGYDSLKNGEEFSFLKEFSNMVTAKESQYVMKIANSLFVQNGFHVNEEFLQMMKKYFNAAVNHVDFSQNVAVANYINKWVENNTNNLVKDLVSPRDFDAATYLALINAVYFKGNWKSQFRPENTRTFSFTKDDESEVQIPMMYQQGEFYYGEFSDGSNEAGGIYQVLEIPYEGDEISMMLVLSRQEVPLATLEPLVKAQLVEEWANSVKKQKVEVYLPRFTVEQEIDLKDVLKALGITEIFIKDANLTGLSDNKEIFLSKAIHKSFLEVNEEGSEAAAVSGMIAISRMAVLYPQVIVDHPFFFLIRNRRTGTILFMERVMHPETMNTSGHDFEEL
Consider B1, for which the oligomerisation result in data set [1] (control: G392E NS) and in data set [2] (control: G392E NS) was “increases” each time. For the same protein, the “other: insoluble NS accumulating under proteasome inhibition” value in data set [3] is on record as “increases”. The localisation_or_trafficking result in data set [4] was “increases”.

B2: neuroserpin (NS), wild type: N157A (protein)
parent chain: B1 parent chain with E392G
For B2, the oligomerisation entry in data set [1] (control: wild type NS) and in data set [2] (control: wild type NS) was “increases” in each case.

B3: G392E neuroserpin (G392E NS): G392E/N401A (protein)
parent chain: B1 parent chain
Turning to B3, the oligomerisation entry in data set [1] (control: G392E NS) and in data set [2] (control: G392E NS) was “increases” each time. In data set [5], the degradation_or_half_life entry is reported as “no change”. Moreover, in data set [3], the “other: insoluble NS accumulating under proteasome inhibition” value is “increases”. Also, in data set [4], the localisation_or_trafficking result is given as “increases”.

B4: neuroserpin (NS), wild type: N321A (protein)
parent chain: B1 parent chain with E392G
Regarding B4, the oligomerisation entry in data set [1] (control: wild type NS) and in data set [2] (control: wild type NS) was “increases” in each case.

B5: neuroserpin (NS), wild type: N157A/N321A (protein)
parent chain: B1 parent chain with E392G
Take B5: the oligomerisation result in data set [1] (control: wild type NS) and in data set [2] (control: wild type NS) was “increases” throughout. Further, the “other: amount in insoluble intracellular fraction” value in data set [6] is listed as “increases”.

B6: G392E neuroserpin (G392E NS): G392E/N157A (protein)
parent chain: B1 parent chain
B6: the oligomerisation entry in data set [2] (control: G392E NS) is reported as “increases”. In addition, in data set [4], the localisation_or_trafficking entry is “increases”.
